Measurements: patent publication US20190055314A1 (ADAGENE, published 2019)
Like-named read-outs stand apart in the source and are kept apart here.

Experiments:
[1] = target: T1, human CD137-His6 (Sino Biological #10041-H08H) (human, UniProt Q07011 24-186); experiment: SPR Biacore, IgG
T1 construct: Bought; also called human CD137 protein; not shown: His6 tag

[2] = target: T2, CD137-hisFc fusion protein (Sino Biological Cat 10041-H03H) (human, UniProt Q07011 24-186); experiment: BLI Octet, Fab
T2 construct: Bought; also called recombinant human CD137 (fused with human Fc and His tag); not shown: His tag and human Fc

[3] = target: T2, CD137-hisFc fusion protein (Sino …); experiment: BLI Octet, Fab; remark: listed apart in the source

Binder | Kd [1] | koff [1] | kon [1] | Kd [2] | koff [2] | kon [2] | Kd [3] | koff [3] | kon [3]
AG10086 (antibody, human IgG4 S228P, kappa, V domains shown, also called IgG of Fab 5409) VH: EVQLVESGGGLVQPGGSLRLSCAASGYSISSGHHWAWIRQAPGKGLEWVSVISGSGSSTYYADSVKGRFTISRDNSKNTLYLQLNSLRAEDTAVYYCAREGSDTVLGDWFAYWGQGTLVTVSS VL: DIQLTQSPSSLSASVGDRVTITCRASQGISSYLAWYQQKPGKAPKLLIYDASNLETGVPSRFSGSGSGTDFTLTISSLQPEDFATYYCQQGYSTWTFGQGTKVEIKR | 46 nM | 0.0045 s⁻¹ | 100000 M⁻¹ s⁻¹ | – | – | – | – | – | –
Fab 5300 (Fab, V domains shown, Fab from E. coli; also called VH12/VL12) VH: EVQLVESGGGLVQPGGSLRLSCAASGYTFSNYWIHWVRQAPGKGLEWVSYISGDGDTTYYADSVKGRFTISRDNSKNTLYLQLNSLRAEDTAVYYCAREGSTTVAGDWFAYWGQGTLVTVSS VL: DIQLTQSPSSLSASVGDRVTITCRASQGIGSFLGWYQQKPGKAPKLLIYDASSLESGVPSRFSGSGSGTDFTLTISSLQPEDFATYYCQQYYSLVTFGQGTKVEIKR | – | – | – | 15.3 nM | 0.0091 s⁻¹ | 596000 M⁻¹ s⁻¹ | 15 nM | 0.0091 s⁻¹ | 600000 M⁻¹ s⁻¹
Fab 4074 (Fab, V domains shown, Fab from E. coli) VH: EVQLVESGGGLVQPGGSLRLSCAASGFSLSTGGVGVSWIRQAPGKGLEWVSSISGSGGTTYYADSVKGRFTISRDNSKNTLYLQLNSLRAEDTAVYYCARDDLYSWYFDVWGQGTLVTVSS VL: DIQLTQSPSSLSASVGDRVTITCRASQGIGSSLAWYQQKPGKAPKLLIYAASSLQSGVPSRFSGSGSGTDFTLTISSLQPEDFATYYCQQGYYTWTFGQGTKVEIKR | – | – | – | 19.5 nM | 0.000937 s⁻¹ | 48000 M⁻¹ s⁻¹ | 20 nM | 0.00094 s⁻¹ | 48000 M⁻¹ s⁻¹
AG10084 (antibody, human IgG4 S228P, kappa, V domains shown) VH: EVQLVESGGGLVQPGGSLRLSCAASGYSITSGHYWNWIRQAPGKGLEWVSGISGDGSSTYYADSVKGRFTISRDNSKNTLYLQLNSLRAEDTAVYYCARGGSDAVLGDWFAYWGQGTLVTVSS VL: DIQLTQSPSSLSASVGDRVTITCRASQSISSYLAWYQQKPGKAPKLLIYDASNLETGVPSRFSGSGSGTDFTLTISSLQPEDFATYYCQQGYSTWTFGQGTKVEIKR | 43 nM | 0.0028 s⁻¹ | 66000 M⁻¹ s⁻¹ | – | – | – | – | – | –
Fab 5303 (Fab, V domains shown, Fab from E. coli; also called VH14/VL14) VH: EVQLVESGGGLVQPGGSLRLSCAASGFSLSTSGVAVGWIRQAPGKGLEWLALIDWADDKYYSPSLKSRLTISRDNSKNTLYLQLNSLRAEDTAVYYCAREGSDAVLGDWFAYWGQGTLVTVSS VL: DIQLTQSPSSLSASVGDRVTITCRASQDISTFLAWYQQKPGKAPKLLIYDASSLESGVPSRFSGSGSGTDFTLTISSLQPEDFATYYCQQAYSIWTFGQGTKVEIKR | – | – | – | 5.12 nM | 0.00509 s⁻¹ | 995000 M⁻¹ s⁻¹ | 5.1 nM | 0.0051 s⁻¹ | 1e+06 M⁻¹ s⁻¹
Fab 4217 (Fab, V domains shown, Fab from E. coli; also called VH10/VL10) VH: EVQLVESGGGLVQPGGSLRLSCAASGYSISSGYYWDWIRQAPGKGLEWVSSISGDGDTTYYADSVKGRFTISRDNSKNTLYLQLNSLRAEDTAVYYCAREYYGYGYALDYWGQGTLVTVSS VL: DIQLTQSPSSLSASVGDRVTITCRASQGISSYLAWYQQKPGKAPKLLIYDASSLESGVPSRFSGSGSGTDFTLTISSLQPEDFATYYCQQYYSTPLTFGQGTKVEIKR | – | – | – | 96.7 nM | 0.0545 s⁻¹ | 564000 M⁻¹ s⁻¹ | 97 nM | 0.055 s⁻¹ | 560000 M⁻¹ s⁻¹
Fab 5299 (Fab, V domains shown, Fab from E. coli; also called VH11/VL11) VH: EVQLVESGGGLVQPGGSLRLSCAASGYSISSGHYWGWIRQAPGKGLEWLALIDWYGDKYYSTSLKSRLTISRDNSKNTLYLQLNSLRAEDTAVYYCARSDYYGSHFDYWGQGTLVTVSS VL: DIQLTQSPSSLSASVGDRVTITCRASESVDFDGFSFLAWYQQKPGKAPKLLIYDASNLETGVPSRFSGSGSGTDFTLTISSLQPEDFATYYCQQYDTLPRTFGQGTKVEIKR | – | – | – | 13.7 nM | 0.0076 s⁻¹ | 555000 M⁻¹ s⁻¹ | 14 nM | 0.0076 s⁻¹ | 560000 M⁻¹ s⁻¹

The remaining lines, values ahead:

Kd [1] | koff [1] | kon [1] | Kd [2] | koff [2] | kon [2] | Kd [3] | koff [3] | kon [3] | Binder
– | – | – | 10.4 nM | 0.00812 s⁻¹ | 782000 M⁻¹ s⁻¹ | 10 nM | 0.0081 s⁻¹ | 780000 M⁻¹ s⁻¹ | Fab 5323 (Fab, V domains shown, Fab from E. coli; also called VH19/VL19) VH: EVQLVESGGGLVQPGGSLRLSCAASGFSLSTSGVGVGWIRQAPGKGLEWIGEIYHSGSTYYSPSLKSRVTISRDNSKNTLYLQLNSLKAEDTAVYYCAREGSDVVTGDWFAYWGQGTLVTVSS VL: DIQLTQSPSSLSASVGDRVTITCRASQGISSVLAWYQQKPGKAPKLLIYDASSLESGVPSRFSGSGSGTDFTLTISSLQPEDFATYYCQQGYSLWTFGQGTKVEIKR
– | – | – | 11.4 nM | 0.00161 s⁻¹ | 141000 M⁻¹ s⁻¹ | 11 nM | 0.0016 s⁻¹ | 140000 M⁻¹ s⁻¹ | Fab 5316 (Fab, V domains shown, Fab from E. coli; also called VH17/VL17) VH: EVQLVESGGGLVQPGGSLRLSCAASGYSISSGYHWAWIRQAPGKGLEWVSSISGDGSSTYYADSVKGRFTISRDNSKNTLYLQLNSLRAEDTAVYYCAREGSDAVTGDWFAYWGQGTLVTVSS VL: DIQLTQSPSSLSASVGDRVTITCRASQGVGTYLAWYQQKPGKAPKLLIYDASSLESGVPSRFSGSGSGTDFTLTISSLQPEDFATYYCQQGYSLWTFGQGTKVEIKR
– | – | – | 14.9 nM | 0.00608 s⁻¹ | 407000 M⁻¹ s⁻¹ | 15 nM | 0.0061 s⁻¹ | 410000 M⁻¹ s⁻¹ | Fab 5367 (Fab, V domains shown, Fab from E. coli; also called VH31/VL31) VH: EVQLVESGGGLVQPGGSLRLSCAASGFSLSTSGVGVGWIRQAPGKGLEWVSGISGAGDSTYYADSVKGRFTISRDNSKNTLYLQLNSLRAEDTAVYYCAREGSDTVLGDWFAYWGQGTLVTVSS VL: DIQLTQSPSSLSASVGDRVTITCRASQDIRSYLAWYQQKPGKAPKLLIYDASNRATGIPSRFSGSGSGTDFTLTISSLQPEDFATYYCQQGYSIWTFGQGTKVEIKR
– | – | – | 2.56 nM | 0.00179 s⁻¹ | 701000 M⁻¹ s⁻¹ | 2.6 nM | 0.0018 s⁻¹ | 700000 M⁻¹ s⁻¹ | Fab 5365 (Fab, V domains shown, Fab from E. coli; also called VH30/VL30) VH: EVQLVESGGGLVQPGGSLRLSCAASGFSLSTGGVGVGWIRQAPGKGLEWLALIDWADDKYYSPSLKSRLTISRDNSKNTLYLQLNSLRAEDTAVYYCARGGSDTVIGDWFAYWGQGTLVTVSS VL: DIQLTQSPSSLSASVGDRVTITCRASQSIGSYLAWYQQKPGKAPKLLIYDASNLETGVPSRFSGSGSGTDFTLTISSLQPEDFATYYCQQGYYLWTFGQGTKVEIKR
– | – | – | 5.72 nM | 0.00465 s⁻¹ | 813000 M⁻¹ s⁻¹ | 5.7 nM | 0.0047 s⁻¹ | 810000 M⁻¹ s⁻¹ | Fab 5310 (Fab, V domains shown, Fab from E. coli; also called VH15/VL15) VH: EVQLVESGGGLVQPGGSLRLSCAASGFSLSTSGVGVGWIRQAPGKGLEWLALIDWDDDKYYSPSLKSRLTISRDNSKNTLYLQLNSLRAEDTAVYYCARGGSDTVLGDWFAYWGQGTLVTVSS VL: DIQLTQSPSSLSASVGDRVTITCRASQSVSPYLAWYQQKPGKAPKLLIYDASSLESGVPSRFSGSGSGTDFTLTISSLQPEDFATYYCQQGYSLWTFGQGTKVEIKR
– | – | – | 16.1 nM | 0.00597 s⁻¹ | 370000 M⁻¹ s⁻¹ | 16 nM | 0.006 s⁻¹ | 370000 M⁻¹ s⁻¹ | Fab 5353 (Fab, V domains shown, Fab from E. coli; also called VH26/VL26) VH: EVQLVESGGGLVQPGGSLRLSCAASGFTFSSYWIHWVRQAPGKGLEWVSVISGDGDTTYYADSVKGRFTISRDNSKNTLYLQLNSLRAEDTAVYYCARSRGLVLDAFDYWGQGTLVTVSS VL: DIQLTQSPSSLSASVGDRVTITCRASQSVSGRFLAWYQQKPGKAPKLLIYDASSLESGVPSRFSGSGSGTDFTLTISSLQPEDFATYYCQQYDYWPPYTFGQGTKVEIKR
